In publication PMC11602913 (EJNMMI Radiopharmacy and Chemistry, 2024):

Columns and labels:
[1] = DOTA and its derivatives; ref Mirzadeh et al. [1993]; Bauer et al. [2024]; cited from earlier work
Source text: (§1) The well-known chelator DOTA and its derivatives tend to lose up to 40% of ^212Bi from its ^212Pb-complexes due to β^–-conversion accompanied by 38% conversion electrons and a cascade of Auger-Meitner electrons (Mirzadeh et al. [1993]; Bauer et al. [2024]). […] PSC-PEG2-TOC (VMT-α-NET) is a somatostatin receptor subtype 2 (SSTR2) targeting peptide of very high stability for the treatment of neuroendocrine tumours ...

[2] = Stability of the 212Pb-labelled product at room temperature (radio-TLC); type: physicochemical
Protocol: Since the radiolysis and alpha decay is often discussed as fatal for the radiolabelled molecules in solution (Roscher et al. [2020]), the stability of the ^212Pb-labelled product was tested at room temperature. A TLC sample was taken from the product vial 4 h after radiosynthesis. Right after development of the TLC strip, > 20% of activity was found as unbound activity at the front of the TLC (Fig. S3). […] The activity at the front of the TLC was mainly due to free ^208Tl, which is reasonable due to 36% direct alpha decay from ^212Bi.
RCP was monitored by thin-layer chromatography (TLC) on iTLC-SG plates (Agilent, Santa Clara, California, USA). Measurement of the radionuclidic purity (RNP) and evaluation of the radio-TLC and was performed with a thin-layer scanner (MiniScanPRO + , Eckert&Ziegler Eurotope GmbH, Berlin, Germany) equipped with a Model 43–2 alpha detector ZnS(Ag) scintillator (Ludlum Measurements, Sweetwater, Texas, USA) and a built-in multi-channel analyzer for gamma spectroscopy.

[3] = tested on: neuroendocrine tumours (NET); experiment: Individual patient application of the 212Pb-labelled peptide; type: in vivo, human; conditions: patients, doses of 1–1.5 MBq/kg
Protocol: The precursor concentration (0.1 µg/MBq) results in a maximum mass of 50 µg (31.7 nmol) for 500 MBq ^212Pb-labelled peptide, which is half to the mass used for routine ^177Lu-preparations with 5000 MBq (Brogsitter et al. [2017]). At this concentration, any ^212Bi generated during the reaction time by free ^212Pb is rebound by the precursor (Li et al. [2023]). Typically, doses of 1–1.5 MBq/kg were administered per patient. […] The detailed results of patient treatments will be discussed in a further publication.

[4] = tested on: somatostatin receptor subtype 2 (SSTR2); conditions: ref Li et al. [2023]; cited from earlier work
Source text: as §1

For O=C(O)CN1CCN(CC(=O)O)CCN(CC(=O)O)CCN(CC(=O)O)CC1 [DOTA], which “loss of 212Bi from 212Pb-complexes due to β−-conversion” value [1] is on record?
The value was “up to 40%”.

Which results are given for “[^212Pb]Pb-PSC-PEG2-TOC [[^212Pb]Pb-VMT-α-NET]”?
free 212Bi together with free 208Tl daughter nuclides observed in the TLCs ([2]; 4 h after radiosynthesis, radio-TLC): up to 20%; spot for unbound radionuclides on TLC ([2]; product vial at room temperature, TLC sample taken 4 h after radiosynthesis, measured 10 h after development of the TLC strip, iTLC-SG, citrate eluant (Fig. S4)): below 5%; unbound activity at the front of the TLC ([2]; product vial at room temperature, TLC sample taken 4 h after radiosynthesis, measured right after development of the TLC strip, iTLC-SG, citrate eluant (Fig. S3)): > 20%; radiolysis of the 212Pb-labelled product ([2]; room temperature, within 4 h after radiosynthesis, radio-TLC): no significant radiolysis; disease response in individual patient application [3]: stable disease for more than six months

For PSC-PEG2-TOC [VMT-α-NET], which renal excretion [4] is on record?
Its renal excretion is “fast renal excretion”.

And the tumour accumulation [4]?
The tumour accumulation was “rapid tumour accumulation”.

And the tumour retention [4]?
The tumour retention was “high tumour retention”.
